Blank lines part the entries; values can stand above or below the binder they belong to. Non-standard residues stand in square brackets, D forms with d. *: point of attachment. Dnp = O=[N+]([O-])c1ccc(*)c([N+](=O)[O-])c1; Mca = COc1ccc2c(CC(=O)*)cc(=O)oc2c1
Experiments:
Test in all cases: cell-based or functional assay
[1] = target: T1, Cathepsin E (purchased from Calbiochem, EMD Bioscience)
T1 sequence (P14091 whole entry, species assumed, looked up): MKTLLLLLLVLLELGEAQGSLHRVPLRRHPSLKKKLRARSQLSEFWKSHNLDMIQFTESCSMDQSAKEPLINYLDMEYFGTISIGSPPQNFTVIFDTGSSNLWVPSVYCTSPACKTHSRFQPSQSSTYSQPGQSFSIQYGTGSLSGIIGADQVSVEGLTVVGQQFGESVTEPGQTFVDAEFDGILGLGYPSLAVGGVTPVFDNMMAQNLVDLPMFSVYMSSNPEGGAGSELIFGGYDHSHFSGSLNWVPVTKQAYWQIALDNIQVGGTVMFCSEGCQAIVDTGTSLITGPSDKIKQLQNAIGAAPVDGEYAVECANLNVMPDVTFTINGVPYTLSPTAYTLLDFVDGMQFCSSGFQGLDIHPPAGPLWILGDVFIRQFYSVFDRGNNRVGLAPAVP

[2] = target: Cathepsin B (purchased from Calbiochem, EMD Bioscience)
[3] = target: Cathepsin S (purchased from Calbiochem, EMD Bioscience)

B1: substrate b, Mca-Gly-Pro-Ile-Leu-Phe**Phe-Arg-Leu-Gly-Lys(Dnp)-DArg-CONH2 (peptide)
peptide: Mca-GPILFFRLGK(Dnp)[dR]-NH2
SMILES: CC[C@H](C)[C@H](NC(=O)[C@@H]1CCCN1C(=O)CNC(=O)Cc1cc(=O)oc2cc(OC)ccc12)C(=O)N[C@@H](CC(C)C)C(=O)N[C@@H](Cc1ccccc1)C(=O)N[C@@H](Cc1ccccc1)C(=O)N[C@@H](CCCNC(=N)N)C(=O)N[C@@H](CC(C)C)C(=O)NCC(=O)N[C@@H](CCCCNc1ccc([N+](=O)[O-])cc1[N+](=O)[O-])C(=O)N[C@H](CCCNC(=N)N)C(N)=O
net fluorescence signal ratio (Cath E/Cath D) immediately after incubation [1]: 1.6 fold

B2: substrate c, Mca-Gly-Pro-Ile-Leu-Phe**Phe-Arg-Leu-Lys(Dnp)-DArg-CONH2 (peptide)
peptide: Mca-GPILFFRLK(Dnp)[dR]-NH2
SMILES: CC[C@H](C)[C@H](NC(=O)[C@@H]1CCCN1C(=O)CNC(=O)Cc1cc(=O)oc2cc(OC)ccc12)C(=O)N[C@@H](CC(C)C)C(=O)N[C@@H](Cc1ccccc1)C(=O)N[C@@H](Cc1ccccc1)C(=O)N[C@@H](CCCNC(=N)N)C(=O)N[C@@H](CC(C)C)C(=O)N[C@@H](CCCCNc1ccc([N+](=O)[O-])cc1[N+](=O)[O-])C(=O)N[C@H](CCCNC(=N)N)C(N)=O
net fluorescence signal ratio (Cath E/Cath D) immediately after incubation [1]: 1.5 fold

B3: substrate d, Mca-Ala-Gly-Phe-Ser-Leu**Gly-Pro-Lys(Dnp)-DArg-CONH2 (peptide)
peptide: Mca-AGFSLGPK(Dnp)[dR]-NH2
SMILES: COc1ccc2c(CC(=O)N[C@@H](C)C(=O)NCC(=O)N[C@@H](Cc3ccccc3)C(=O)N[C@@H](CO)C(=O)N[C@@H](CC(C)C)C(=O)NCC(=O)N3CCC[C@H]3C(=O)N[C@@H](CCCCNc3ccc([N+](=O)[O-])cc3[N+](=O)[O-])C(=O)N[C@H](CCCNC(=N)N)C(N)=O)cc(=O)oc2c1
net fluorescence signal ratio (Cath E/Cath D) at 10 minutes [1]: 4 fold
net fluorescence signal ratio (Cath E/Cath D) at 45 minutes [1]: 2.3 fold
net fluorescence signal ratio (Cath E/Cath D) at the initial time point [1]: 12 fold

The remaining lines, values ahead:

fluorescence signal increase relative to that observed with Cath E, 90 minutes [2]: < 15%
net fluorescence signal ratio (Cath E/Cath D) at 1 minute [1]: 265 fold
fluorescence signal increase relative to that observed with Cath E, 90 minutes [3]: < 15%
B4: substrate e, Mca-Ala-Gly-Phe-Ser-Leu**Pro-Ala-Lys(Dnp)-D-Arg-CONH2 (peptide)
peptide: Mca-AGFSLPAK(Dnp)[dR]-NH2
SMILES: COc1ccc2c(CC(=O)N[C@@H](C)C(=O)NCC(=O)N[C@@H](Cc3ccccc3)C(=O)N[C@@H](CO)C(=O)N[C@@H](CC(C)C)C(=O)N3CCC[C@H]3C(=O)N[C@@H](C)C(=O)N[C@@H](CCCCNc3ccc([N+](=O)[O-])cc3[N+](=O)[O-])C(=O)N[C@H](CCCNC(=N)N)C(N)=O)cc(=O)oc2c1

net fluorescence signal ratio (Cath E/Cath D) at 10 minutes [1]: 4.5 fold
net fluorescence signal ratio (Cath E/Cath D) at 45 minutes [1]: 1.6 fold
net fluorescence signal ratio (Cath E/Cath D) at the initial time point [1]: 17.9 fold
B5: substrate a, Mca-Gly-Ser-Pro-Ala-Phe**Leu-Ala-Lys(Dnp)-DArg-CONH2 (peptide)
peptide: Mca-GSPAFLAK(Dnp)[dR]-NH2
SMILES: COc1ccc2c(CC(=O)NCC(=O)N[C@@H](CO)C(=O)N3CCC[C@H]3C(=O)N[C@@H](C)C(=O)N[C@@H](Cc3ccccc3)C(=O)N[C@@H](CC(C)C)C(=O)N[C@@H](C)C(=O)N[C@@H](CCCCNc3ccc([N+](=O)[O-])cc3[N+](=O)[O-])C(=O)N[C@H](CCCNC(=N)N)C(N)=O)cc(=O)oc2c1

Source: patent US20130251640A1 (METHODIST HOSPITAL SYSTEM, published 2013)
